The values that follow come from patent publication EP4786494A1 (Nanjing Leads Biolabs Co., Ltd., dated 2026).

Where a chain is given by its changes, count along the chain named.

The target of experiment [1] is T1, cynomolgus FGFR2-his protein (cynoFGFR2-his) (cynomolgus).
T1 construct: Extracellular region of cynomolgus FGFR2b (XP_028682763.1) with a 6xHis tag; also called cynomolgus FGFR2 extracellular protein
T1 chain: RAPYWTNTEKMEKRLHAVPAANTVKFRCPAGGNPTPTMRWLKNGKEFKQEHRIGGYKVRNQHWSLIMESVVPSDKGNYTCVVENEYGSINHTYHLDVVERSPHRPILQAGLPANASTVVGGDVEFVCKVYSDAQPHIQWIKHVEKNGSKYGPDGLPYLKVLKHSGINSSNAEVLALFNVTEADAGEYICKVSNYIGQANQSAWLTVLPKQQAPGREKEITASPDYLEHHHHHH
The experiment in a line: BLI (ForteBio Octet RED96e), antibody on AHC sensor, cynomolgus FGFR2-his in solution, 1:1 model.

In experiment [2] the target is T2, human FGFR2-his protein (huFGFR2-his) (human).
T2 construct: Extracellular region of human FGFR2 (NP_001138385.1) with a 6xHis tag; also called human FGFR2 extracellular protein
T2 chain: T1 chain with T35M
The experiment in a line: BLI (ForteBio Octet RED96e), antibody on AHC sensor, FGFR2-his in solution, 1:1 model. Background: In BLI a coated tip is dipped into the sample, and binding shifts an interference pattern.

Experiment [3] addresses T3, human FGFR3 protein (Sino Biological, Cat. No. 16486-H08H) (human, UniProt P22607-2 23-377).
T3 construct: Bought recombinant protein; construct not described
T3 sequence (looked up): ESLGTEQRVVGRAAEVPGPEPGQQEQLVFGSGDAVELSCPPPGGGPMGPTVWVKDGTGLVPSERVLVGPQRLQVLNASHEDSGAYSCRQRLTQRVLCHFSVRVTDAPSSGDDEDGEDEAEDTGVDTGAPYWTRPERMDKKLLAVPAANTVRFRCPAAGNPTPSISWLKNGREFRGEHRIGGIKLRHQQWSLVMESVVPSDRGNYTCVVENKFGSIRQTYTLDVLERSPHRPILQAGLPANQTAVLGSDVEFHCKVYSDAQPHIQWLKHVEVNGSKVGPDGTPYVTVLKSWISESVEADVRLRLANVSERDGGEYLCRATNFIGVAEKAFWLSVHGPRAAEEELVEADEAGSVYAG
The experiment in a line: ELISA, FGFR3 coated.

The target of experiment [4] is T4, human FGFR4 protein (Sino Biological, Cat. No. 10538-H08H) (human, UniProt P22455 22-369).
T4 construct: Bought recombinant protein; construct not described
Nature of the experiment: ELISA, FGFR4 coated.

Experiment [5] concerns the target T5, human FGFR1 protein (ACRO Biosystems, Cat. No. FG1-H5223) (human, UniProt P11362-14 22-285).
T5 construct: Bought recombinant protein; construct not described
T5 sequence (looked up): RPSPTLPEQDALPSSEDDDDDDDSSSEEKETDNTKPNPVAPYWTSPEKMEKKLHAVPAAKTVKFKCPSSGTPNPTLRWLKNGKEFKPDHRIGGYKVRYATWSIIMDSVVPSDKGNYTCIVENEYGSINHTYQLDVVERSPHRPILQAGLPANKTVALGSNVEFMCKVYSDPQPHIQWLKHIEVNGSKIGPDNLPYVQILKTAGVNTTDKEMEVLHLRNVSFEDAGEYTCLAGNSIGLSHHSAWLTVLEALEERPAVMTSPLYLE
The experiment in a line: ELISA, FGFR1 coated. In general terms: ELISA stands for enzyme-linked immunosorbent assay.

B1: humanized monoclonal antibody huG11B8-5 (antibody, human IgG1, kappa, V domains shown)
VH: EVQLVQSGAEVKKPGATVKISCKASGYTFTDYNMDWVQQAPGKGLEWMGDINPKNGETFYAEKFQGRVTLTVDRSTNTAYMELSSLRSEDTAVYFCAKRDLNWYFDYWGQGTTVTVSS
VL: DIQMTQSPSSLSASVGDRVTITCQASDHINNWLAWYQQKPGKAPKLLISGATSLETGVPSRFSGSGSGKDYTFTISSLQPEDIATYYCQQYWSTPWTFGGGTKVEIKR
notes: huG11B8H-3 + huG11B8L-1; human IgG1 / kappa
In experiment [1], B1 returned a Kd of 1.62 nM, a koff of 0.000866 s⁻¹ and a kon of 536000 M⁻¹ s⁻¹. Also, in experiment [2], binding was characterised by a dissociation constant (Kd) of 2.62 nM, the dissociation rate constant (koff) was found to be 0.000431 s⁻¹ and the kon is 164000 M⁻¹ s⁻¹.

B2: bemarituzumab (antibody, human IgG1, kappa, V domains shown)
VH: QVQLVQSGAEVKKPGSSVKVSCKASGYIFTTYNVHWVRQAPGQGLEWIGSIYPDNGDTSYNQNFKGRATITADKSTSTAYMELSSLRSEDTAVYYCARGDFAYWGQGTLVTVSS
VL: DIQMTQSPSSLSASVGDRVTITCKASQGVSNDVAWYQQKPGKAPKLLIYSASYRYTGVPSRFSGSGSGTDFTFTISSLQPEDIATYYCQQHSTTPYTFGQGTKLEIKR
Turning to B2, the binding result in experiment [3], in experiment [4] and in experiment [5] was “no binding” throughout.

A word on the Kd: it is the free concentration of one partner at which half of the binding sites on the other are occupied at equilibrium, for simple one-to-one binding. Low readings indicate higher affinity, high ones lower affinity. One may read the koff as a measure of how fast the partners let go of each other. The low end stands for slow dissociation, the high end for fast dissociation. The kon is the rate constant with which the complex forms. Read a high kon as fast association.
